From article PMC9720396, “Autoreactivity and broad neutralization of antibodies against HIV-1 are governed by distinct mutations: Implications for vaccine design strategies” (Frontiers in Immunology, 2022) come the findings set out here.

The target in assay [1] is T1, UBE3A on the ProtoArray human protein microarray (Homo sapiens, UniProt Q05086).
T1 construct: UBE3A, one of the 9,400 human proteins on the ProtoArray; source: bought: Invitrogen ProtoArray
In words: peptide or protein array; ProtoArray (Invitrogen) with 9,400 human proteins, in duplicate; 2 µg/ml recombinant Ab, 1.5 hours at 4°C; detected with Alexa Fluor 647 anti-human IgG; compared with the control Ab 151K. Particulars: both partners purified.

The target of assay [2] is host proteins on the ProtoArray (9,400 human proteins) (human). The assay is described as above.
Assay [3] has as its target T2, host protein UBE3A (Abcam), coupled to Luminex beads (Homo sapiens, UniProt Q05086).
T2 construct: UBE3A, host protein; bought from Abcam (printed there as UBE34); also called UBE34; source: bought: Abcam
In words: Luminex bead-based binding assay; UBE3A (Abcam) covalently linked to carboxylated beads; Abs serially diluted 1:3 from 2 µg/ml in PBS with 0.05% NaN3, 0.05% Tween 20, 1% BSA and 1% milk; 2 hours at room temperature; detected with PE goat anti-human IgG. Particulars: both partners purified.

In a further assay the target is T3, Cen B (Homo sapiens (assumed), UniProt P07199).
T3 construct: Cen B autoantigen (centromere protein B) of the autoantigen ELISA
Kind of assay: ELISA; autoantigen ELISA (legend: Athena autoantigen assay); antigens coated at 20 µg/ml overnight at 4°C; Abs in serial dilutions 45 min at RT; HRP anti-human IgG, TMB, 450 nm. Particulars: both partners purified. Background: In an ELISA, binding on a coated surface is turned into a signal by an enzyme label.

T2 sequence (Q05086 whole entry): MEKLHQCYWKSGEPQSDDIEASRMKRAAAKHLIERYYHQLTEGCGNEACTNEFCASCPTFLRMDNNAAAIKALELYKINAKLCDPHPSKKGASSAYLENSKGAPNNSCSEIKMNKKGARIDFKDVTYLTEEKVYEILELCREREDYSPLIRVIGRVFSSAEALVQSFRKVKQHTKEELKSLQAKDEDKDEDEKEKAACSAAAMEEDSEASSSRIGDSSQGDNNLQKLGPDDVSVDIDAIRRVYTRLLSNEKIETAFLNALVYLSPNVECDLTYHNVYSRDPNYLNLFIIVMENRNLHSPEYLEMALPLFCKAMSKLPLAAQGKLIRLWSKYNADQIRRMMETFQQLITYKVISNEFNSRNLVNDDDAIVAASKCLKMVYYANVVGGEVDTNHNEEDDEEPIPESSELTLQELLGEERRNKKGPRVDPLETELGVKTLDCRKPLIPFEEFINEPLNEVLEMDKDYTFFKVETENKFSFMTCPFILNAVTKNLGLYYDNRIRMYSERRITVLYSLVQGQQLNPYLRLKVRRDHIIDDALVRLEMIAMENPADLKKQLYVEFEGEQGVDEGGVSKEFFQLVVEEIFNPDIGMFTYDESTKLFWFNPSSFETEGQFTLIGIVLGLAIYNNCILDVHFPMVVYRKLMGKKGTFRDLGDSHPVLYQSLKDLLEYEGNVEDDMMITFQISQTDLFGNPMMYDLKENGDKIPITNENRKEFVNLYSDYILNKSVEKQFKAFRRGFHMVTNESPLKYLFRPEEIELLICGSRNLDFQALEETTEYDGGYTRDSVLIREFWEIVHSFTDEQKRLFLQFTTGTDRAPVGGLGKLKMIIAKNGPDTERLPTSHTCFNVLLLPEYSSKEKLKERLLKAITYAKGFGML
T3 sequence (P07199 whole entry): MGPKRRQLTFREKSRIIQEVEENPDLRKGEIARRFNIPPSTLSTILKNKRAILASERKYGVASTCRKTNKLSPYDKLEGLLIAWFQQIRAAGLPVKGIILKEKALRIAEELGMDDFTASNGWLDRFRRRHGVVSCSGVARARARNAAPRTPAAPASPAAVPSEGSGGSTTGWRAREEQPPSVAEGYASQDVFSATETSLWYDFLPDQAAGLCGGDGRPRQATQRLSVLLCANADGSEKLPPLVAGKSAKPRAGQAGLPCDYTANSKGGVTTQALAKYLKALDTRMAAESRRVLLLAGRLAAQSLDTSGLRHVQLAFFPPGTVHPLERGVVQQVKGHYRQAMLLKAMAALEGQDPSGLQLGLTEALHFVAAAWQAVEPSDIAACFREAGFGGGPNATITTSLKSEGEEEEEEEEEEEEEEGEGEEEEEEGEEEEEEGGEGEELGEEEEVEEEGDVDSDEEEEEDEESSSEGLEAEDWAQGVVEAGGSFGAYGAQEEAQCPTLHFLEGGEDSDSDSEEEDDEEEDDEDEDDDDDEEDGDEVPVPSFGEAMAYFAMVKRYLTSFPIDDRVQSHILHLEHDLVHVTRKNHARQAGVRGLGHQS

B1: IA1, inferred late intermediate of the CH103-106 bnAb lineage (antibody, V domains shown)
V domain 1: QVQLQESGPGVVKSSETLSLTCTVSGGSMGGTYWSWLRLSPGKGLEWIGYIFHTGHTNYSPSLKGRVSISVDTSEDQFSLRLRSVTAADTAVYFCASLPRGQLVNAYFRNWGRGTLVSVTA
V domain 2: SYELTQPPSVSVSPGQTATITCSGDKVASKNVCWYQVKPGQSPEVVMYENYKRPSGIPDRFSGSKSGSTATLTIRGTQATDEADYYCQVWDSFSTFVFGSGTQVTV
notes: as the heavy chain of m8 (IA2) with the two changes below; same light chain as IA2; recombinant IgG; also called 1A1; source: Expi293, transiently transfected, purified (Protein A agarose)
As for B1, the “fold higher binding than Abs without E64K” value in assay [1] was roughly 10 fold. The polyreactivity index (PI) in assay [2] was found to be 0.64.

B2: CH103 VL F49Y mutant (antibody, V domains shown)
V domain 1: QVQLQESGPGVVKSSETLSLTCTVSGGSMGGTYWSWLRLSPGKGLEWIGYIFHTGETNYSPSLKGRVSISVDTSEDQFSLRLRSVTAADTAVYFCASLPRGQLVNAYFRNWGRGSLVSVTA
V domain 2: SYELTQPPSVSVSPGQTATITCSGASTNVCWYQVKPGQSPEVVIYENYKRPSGIPDRFSGSKSGSTATLTIRGTQAIDEADYYCQVWDSFSTFVFGSGTQVTV
notes: as the heavy chain of m10 (CH103); as the light chain of m10 (CH103); recombinant IgG; source: Expi293, transiently transfected, purified (Protein A agarose)
On to B2, for which the “fold reduction of binding against parental CH103” value in assay [3] was roughly 10 fold.

B3: IA2, inferred late intermediate of the CH103-106 bnAb lineage (antibody, V domains shown)
V domain 1: QVQLQESGPGVVKSSETLSLTCTVSGGSMGGTYWSWLRLSPGKGLEWIGYIFHTGHTNYNPSLEGRVSISVDTSEDQFSLRLRSVTAADTAVYFCASLPRGQLVNAYFRNWGRGTLVSVTA
V domain 2: SYELTQPPSVSVSPGQTATITCSGDKVASKNVCWYQVKPGQSPEVVMYENYKRPSGIPDRFSGSKSGSTATLTIRGTQATDEADYYCQVWDSFSTFVFGSGTQVTV
notes: same light chain as IA1; recombinant IgG; source: Expi293, transiently transfected, purified (Protein A agarose)
B3: the binding result in assay [3] was “no binding (tested: 2 µg/ml)”.

B4: CH103 VH T23S mutant (antibody, V domains shown)
V domain 1: QVQLQESGPGVVKSSETLSLTCSVSGGSMGGTYWSWLRLSPGKGLEWIGYIFHTGETNYSPSLKGRVSISVDTSEDQFSLRLRSVTAADTAVYFCASLPRGQLVNAYFRNWGRGSLVSVTA
V domain 2: SYELTQPPSVSVSPGQTATITCSGASTNVCWYQVKPGQSPEVVIFENYKRPSGIPDRFSGSKSGSTATLTIRGTQAIDEADYYCQVWDSFSTFVFGSGTQVTV
notes: as for B2
For B4, the binding result in assay [3] is given as “binds”.

B5: CH103 VL D85E mutant (antibody, V domains shown)
V domain 1: QVQLQESGPGVVKSSETLSLTCTVSGGSMGGTYWSWLRLSPGKGLEWIGYIFHTGETNYSPSLKGRVSISVDTSEDQFSLRLRSVTAADTAVYFCASLPRGQLVNAYFRNWGRGSLVSVTA
V domain 2: SYELTQPPSVSVSPGQTATITCSGASTNVCWYQVKPGQSPEVVIFENYKRPSGIPDRFSGSKSGSTATLTIRGTQAIDEAEYYCQVWDSFSTFVFGSGTQVTV
notes: as for B2
Regarding B5, the binding result in assay [3] is recorded as “binds”.

B6: CH103 VL mutant with the 3-aa insertion (DKV) (antibody, V domains shown)
V domain 1: QVQLQESGPGVVKSSETLSLTCTVSGGSMGGTYWSWLRLSPGKGLEWIGYIFHTGETNYSPSLKGRVSISVDTSEDQFSLRLRSVTAADTAVYFCASLPRGQLVNAYFRNWGRGSLVSVTA
V domain 2: SYELTQPPSVSVSPGQTATITCSGDKVASTNVCWYQVKPGQSPEVVIFENYKRPSGIPDRFSGSKSGSTATLTIRGTQAIDEADYYCQVWDSFSTFVFGSGTQVTV
notes: as the heavy chain of m10 (CH103); as the light chain of m10 (CH103) with DKV inserted as in CH106; recombinant IgG; also called 3-aa (DKV) insertion; source: Expi293, transiently transfected, purified (Protein A agarose)
Take B6: the binding result in assay [3] is “binds”.

B7: CH103 VH S107I mutant (antibody, V domains shown)
V domain 1: QVQLQESGPGVVKSSETLSLTCTVSGGSMGGTYWSWLRLSPGKGLEWIGYIFHTGETNYSPSLKGRVSISVDTSEDQFSLRLRSVTAADTAVYFCASLPRGQLVNAYFRNWGRGILVSVTA
V domain 2: SYELTQPPSVSVSPGQTATITCSGASTNVCWYQVKPGQSPEVVIFENYKRPSGIPDRFSGSKSGSTATLTIRGTQAIDEADYYCQVWDSFSTFVFGSGTQVTV
notes: as for B2
With B7, the binding result in assay [3] is listed as “binds”.

B8: CH103 VL I48M mutant (antibody, V domains shown)
V domain 1: QVQLQESGPGVVKSSETLSLTCTVSGGSMGGTYWSWLRLSPGKGLEWIGYIFHTGETNYSPSLKGRVSISVDTSEDQFSLRLRSVTAADTAVYFCASLPRGQLVNAYFRNWGRGSLVSVTA
V domain 2: SYELTQPPSVSVSPGQTATITCSGASTNVCWYQVKPGQSPEVVMFENYKRPSGIPDRFSGSKSGSTATLTIRGTQAIDEADYYCQVWDSFSTFVFGSGTQVTV
notes: as for B2
As for B8, the “fold reduction of binding against parental CH103” value in assay [3] was roughly 10 fold.

B9: CH106, mature CD4 binding site bnAb (antibody, V domains shown)
V domain 1: QVQLQESGPGVVKSSETLSLTCSVSGGSMGGTYWSWLRLSPGKGLEWIGYIFHTGHTNYSPSLKGRVSISVDTSEDQFSLRLRSVTAADTAVYFCASLPRGQLVNAYFRNWGRGILVSVTA
V domain 2: SYELTQPPSVSVSPGQTATITCSGDKVASVNVCWYQVKPGQSPDVVMYENYKRPSGIPDRFSGSKSGSTATLTIRGTQATDEAEYYCQVWDSFSTFVFGSGTQVTV
notes: as the heavy chain of m10 (CH103) with the three differences below; as the light chain of m10 (CH103) with the differences below and a 3-aa (DKV) insertion; recombinant IgG; source: Expi293, transiently transfected, purified (Protein A agarose)
As to B9, the binding result in assay [3] is “binds”.

B10: CH103 VH E56H mutant (antibody, V domains shown)
V domain 1: QVQLQESGPGVVKSSETLSLTCTVSGGSMGGTYWSWLRLSPGKGLEWIGYIFHTGHTNYSPSLKGRVSISVDTSEDQFSLRLRSVTAADTAVYFCASLPRGQLVNAYFRNWGRGSLVSVTA
V domain 2: SYELTQPPSVSVSPGQTATITCSGASTNVCWYQVKPGQSPEVVIFENYKRPSGIPDRFSGSKSGSTATLTIRGTQAIDEADYYCQVWDSFSTFVFGSGTQVTV
notes: as the heavy chain of m10 (CH103); as the light chain of m10 (CH103); recombinant IgG; also called the VH E56H mutant; source: Expi293, transiently transfected, purified (Protein A agarose)
Take B10: the binding result (with Cen B; in assay [3]) was “binds” each time.

B11: CH103 VL I81T mutant (antibody, V domains shown)
V domain 1: QVQLQESGPGVVKSSETLSLTCTVSGGSMGGTYWSWLRLSPGKGLEWIGYIFHTGETNYSPSLKGRVSISVDTSEDQFSLRLRSVTAADTAVYFCASLPRGQLVNAYFRNWGRGSLVSVTA
V domain 2: SYELTQPPSVSVSPGQTATITCSGASTNVCWYQVKPGQSPEVVIFENYKRPSGIPDRFSGSKSGSTATLTIRGTQATDEADYYCQVWDSFSTFVFGSGTQVTV
notes: as for B2
With B11, the binding result in assay [3] was “binds”.

B12: CH103 VL E45D mutant (antibody, V domains shown)
V domain 1: QVQLQESGPGVVKSSETLSLTCTVSGGSMGGTYWSWLRLSPGKGLEWIGYIFHTGETNYSPSLKGRVSISVDTSEDQFSLRLRSVTAADTAVYFCASLPRGQLVNAYFRNWGRGSLVSVTA
V domain 2: SYELTQPPSVSVSPGQTATITCSGASTNVCWYQVKPGQSPDVVIFENYKRPSGIPDRFSGSKSGSTATLTIRGTQAIDEADYYCQVWDSFSTFVFGSGTQVTV
notes: as the heavy chain of m10 (CH103); as the light chain of m10 (CH103); recombinant IgG; also called the VL E45D mutant; source: Expi293, transiently transfected, purified (Protein A agarose)
For B12, the binding result in assay [3] was “binds”.

B13: CH103 mutant containing both the E56H and E45D mutations (antibody, V domains shown)
V domain 1: QVQLQESGPGVVKSSETLSLTCTVSGGSMGGTYWSWLRLSPGKGLEWIGYIFHTGHTNYSPSLKGRVSISVDTSEDQFSLRLRSVTAADTAVYFCASLPRGQLVNAYFRNWGRGSLVSVTA
V domain 2: SYELTQPPSVSVSPGQTATITCSGASTNVCWYQVKPGQSPDVVIFENYKRPSGIPDRFSGSKSGSTATLTIRGTQAIDEADYYCQVWDSFSTFVFGSGTQVTV
notes: as the heavy chain of m10 (CH103); as the light chain of m10 (CH103); recombinant IgG; the double mutant is named only in the results; also called CH103 VH E56H + VL E45D; source: Expi293, transiently transfected, purified (Protein A agarose)
Turning to B13, the binding result in assay [3] is recorded as “binds”.

B14: CH103 VL T31V mutant (antibody, V domains shown)
V domain 1: QVQLQESGPGVVKSSETLSLTCTVSGGSMGGTYWSWLRLSPGKGLEWIGYIFHTGETNYSPSLKGRVSISVDTSEDQFSLRLRSVTAADTAVYFCASLPRGQLVNAYFRNWGRGSLVSVTA
V domain 2: SYELTQPPSVSVSPGQTATITCSGASVNVCWYQVKPGQSPEVVIFENYKRPSGIPDRFSGSKSGSTATLTIRGTQAIDEADYYCQVWDSFSTFVFGSGTQVTV
notes: as for B2
For the molecule B14, the binding result in assay [3] is “binds”.

B15: CH103, mature CD4 binding site bnAb (antibody, V domains shown)
V domain 1: QVQLQESGPGVVKSSETLSLTCTVSGGSMGGTYWSWLRLSPGKGLEWIGYIFHTGETNYSPSLKGRVSISVDTSEDQFSLRLRSVTAADTAVYFCASLPRGQLVNAYFRNWGRGSLVSVTA
V domain 2: SYELTQPPSVSVSPGQTATITCSGASTNVCWYQVKPGQSPEVVIFENYKRPSGIPDRFSGSKSGSTATLTIRGTQAIDEADYYCQVWDSFSTFVFGSGTQVTV
notes: recombinant IgG; source: Expi293, transiently transfected, purified (Protein A agarose)
Consider B15, for which the binding result in assay [3] is on record as “binds”.
